In patent US20050025821A1, “Lipid-comprising drug delivery complexes and methods for their production” (priority 2001, published 2005):
Starred links: 1 amine or outer side, 2 acyl side, 3 side chain; linkers in the order of their positions; H or OH if unused. Suc = O=C(CCC(=O)[*:2])[*:1]

Assays:
[1] = Surface zeta potential (Malvern zeta sizer); type: physicochemical; conditions: 10 mol % in LPD, 5% dextrose USP pH 5.0
Procedure: LPDs were prepared as described by Li, S., et al., Gene Therapy, 1998. 5(7): p. 930-937. Lipid:protamine:DNA ratios of 12 nmol:0.9 μg:1 μg, 12 nmol:0.97 μg:1 μg, and 12 nmol:1 μg:1 μg were used for these experiments, as indicated. As a typical example, 150 μl of liposomes at 6mM were mixed with 197 μl of 5% dextrose USP followed by the addition of 153 μl of pre-compacted DNA at 490 μg/ml. This operation was performed under moderate vortex agitation (speed #3), and the resulting LPD solution contained 150 μg DNA/ml. […] The surface zeta potential was determined using a Malvern zeta sizer (Malvern Instrument Inc, Sacramento, Calif.).
Typically, 0.15 ml of mixed micelles prepared as describe above were mixed with 350 μl of DNA pre-compacted with protamine at a 2:1 protamine:DNA ratio under mild vortex agitation (speed 3). Particles formed spontaneously, i.e. solution became cloudy. […] Particle sizes were assessed as described above and typically were in the 100-200 nm range as determined using a N4Plus coulter (Beckman Coulter, Miami, Fla.) sizer in unimodal mode. The surface zeta-potential was determined using a Malvern zeta sizer (Malvern Instrument Inc, Sacramento, Calif.). […]
PPAA polymer was supplied by Dr. Allan Hoffman's laboratory (University of Washington, Seattle, Wash.). […] The surface zeta potential was determined using a Malvern zeta sizer (Malvern Instrument Inc, Sacramento, Calif). […]

[2] = test system: KB cells; test: In vitro transfection (luciferase expression); type: cell-based; conditions: 1 μg DNA/well
Procedure: The following day, the media was removed and replaced with 500 μl of fresh serum-free media.

[3] = Particle sizing (mean diameter, polydispersity; Coulter N4Plus, unimodal mode); type: physicochemical; conditions: condensed DNA 2:1 μg:μg, DNA 0.143 mg/ml, second experiment (Table 18)
Procedure: The liposomes were prepared as follows: 6000 nmol of 1,2-dioleoyl-3-trimethylammonium-propane (DOTAP) (Avanti Polar Lipid Inc., Alabaster, Ala.) at 20 mg/ml in chloroform and 6000 nmol of cholesterol (Avanti Polar Lipid Inc., Alabaster, Ala.), also prepared at 20 mg/ml in chloroform (J. T. Baker, Phillipsburg N.J.), were mixed in a borosilicate tube and dried for 1 hr under nitrogen at 4 liters per minute (LPM) using a N-EVAP™ (Organomation, Berlin, Mass.). The resulting lipid films were hydrated in 2 ml of 5% USP dextrose (Abbott Laboratories, North Chicago, Ill.) to achieve a final lipid concentration of 6 mM. […]
LPDs were prepared as described by Li, S., et al., Gene Therapy, 1998. […] The surface zeta potential was determined using a Malvern zeta sizer (Malvern Instrument Inc, Sacramento, Calif.).
DLPDs were generated by a modified version of the method previously described by Harvie, P., F. M. Wong, and M. B. Bally, Biophys J, 1998. […] Particle sizes were assessed as described above and typically were in the 150-300 nm range.
Typically, 0.15 ml of mixed micelles prepared as describe above were mixed with 350 μl of DNA pre-compacted with protamine at a 2:1 protamine:DNA ratio under mild vortex agitation (speed 3). […] The surface zeta-potential was determined using a Malvern zeta sizer (Malvern Instrument Inc, Sacramento, Calif.). […]

Substance | decrease in the zeta-potential versus conventional LPD [1] [mV] | increase in transfection activity when formulated with CHEMS:DOPE compared to peptide-compacted DNA alone [2] | size (nm) [3] [nm]
DSPE-PEG5K-succinyl-ACDCRGDCFCG-COOH ({DSPE-PEG5K-Suc}-ACDCRGDCFCG-OH; cysteine pairing not given here) [DSPE-PEG5K-RGD, targeting factor-pegylated lipid conjugate] | 15 |  | 
KHKHKHKHKGKHKHKHKHK |  | No change in the transfection activity | 25
